Positions count from the first letter of the chain named.
T1: human G-CSFR expressed on cells (Homo sapiens, UniProt Q99062 25-836)
T1 sequence: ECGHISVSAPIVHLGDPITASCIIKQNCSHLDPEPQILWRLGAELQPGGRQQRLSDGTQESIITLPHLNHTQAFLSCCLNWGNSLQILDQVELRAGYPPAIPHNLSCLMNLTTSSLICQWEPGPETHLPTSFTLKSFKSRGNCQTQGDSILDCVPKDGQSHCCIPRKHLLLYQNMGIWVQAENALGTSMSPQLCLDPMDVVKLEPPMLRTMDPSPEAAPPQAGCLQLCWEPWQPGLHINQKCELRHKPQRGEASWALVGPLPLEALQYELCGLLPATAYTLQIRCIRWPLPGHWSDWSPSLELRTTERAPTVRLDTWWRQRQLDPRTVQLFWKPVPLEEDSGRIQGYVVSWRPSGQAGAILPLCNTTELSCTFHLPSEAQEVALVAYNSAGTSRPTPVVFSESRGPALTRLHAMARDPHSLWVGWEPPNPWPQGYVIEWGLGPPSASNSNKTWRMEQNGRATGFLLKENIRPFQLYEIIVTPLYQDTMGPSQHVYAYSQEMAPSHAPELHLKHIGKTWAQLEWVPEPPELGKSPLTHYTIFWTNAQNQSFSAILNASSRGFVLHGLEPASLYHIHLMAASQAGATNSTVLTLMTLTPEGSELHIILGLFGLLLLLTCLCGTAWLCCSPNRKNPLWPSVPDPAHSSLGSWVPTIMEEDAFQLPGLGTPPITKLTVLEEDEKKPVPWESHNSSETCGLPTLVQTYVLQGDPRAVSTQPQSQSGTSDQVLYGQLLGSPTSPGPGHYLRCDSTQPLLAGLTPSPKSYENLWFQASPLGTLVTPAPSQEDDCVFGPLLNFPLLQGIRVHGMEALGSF

T2: soluble hG-CSFR: amino acids 25-335 of Homo sapiens G-CSFR with mutations C78A, C163S and C228S and a … (Homo sapiens, UniProt Q99062 25-335)
T2 chain: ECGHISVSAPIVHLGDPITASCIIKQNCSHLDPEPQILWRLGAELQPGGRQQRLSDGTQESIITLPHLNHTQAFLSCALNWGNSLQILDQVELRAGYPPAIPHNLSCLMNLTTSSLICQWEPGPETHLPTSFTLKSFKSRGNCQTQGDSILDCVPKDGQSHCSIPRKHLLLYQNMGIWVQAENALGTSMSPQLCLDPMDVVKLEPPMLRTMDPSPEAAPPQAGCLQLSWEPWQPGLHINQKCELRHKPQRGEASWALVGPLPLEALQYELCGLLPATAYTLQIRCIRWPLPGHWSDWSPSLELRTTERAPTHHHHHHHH

T3: hG-CSFR-Fc: polypeptide of SEQ ID NO: 1 in which the C-terminal polyhistidine tag is replaced with an Fc … (Homo sapiens, UniProt Q99062 25-335)
T3 construct: the Fc is not specified; also called human G-CSFR-Fc; hG-CSFR-Fc fusion
T3 chain: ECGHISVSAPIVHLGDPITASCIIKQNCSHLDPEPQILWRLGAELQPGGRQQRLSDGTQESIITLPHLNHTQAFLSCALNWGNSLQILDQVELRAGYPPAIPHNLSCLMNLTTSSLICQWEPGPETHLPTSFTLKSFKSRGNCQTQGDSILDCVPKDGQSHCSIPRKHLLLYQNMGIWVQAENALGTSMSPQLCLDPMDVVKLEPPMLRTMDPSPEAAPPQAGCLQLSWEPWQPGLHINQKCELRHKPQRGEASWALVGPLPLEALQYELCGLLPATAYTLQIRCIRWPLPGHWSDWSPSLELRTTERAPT

T4: cynoG-CSFR-Fc: corresponding segment of cynomolgus monkey G-CSFR with an Fc sequence attached to its … (Macaca fascicularis, UniProt Q99062 25-335 (human entry))
T4 construct: the Fc is not specified; also called cynomolgus monkey G-CSFR-Fc
T4 chain: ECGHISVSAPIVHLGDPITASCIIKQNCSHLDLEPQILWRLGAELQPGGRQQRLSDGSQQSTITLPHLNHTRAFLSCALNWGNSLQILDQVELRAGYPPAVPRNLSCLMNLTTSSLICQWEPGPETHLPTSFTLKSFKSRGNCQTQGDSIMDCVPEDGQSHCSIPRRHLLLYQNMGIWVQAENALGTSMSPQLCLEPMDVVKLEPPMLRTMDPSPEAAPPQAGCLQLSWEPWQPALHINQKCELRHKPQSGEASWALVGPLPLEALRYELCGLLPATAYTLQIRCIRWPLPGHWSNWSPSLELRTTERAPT

B1: C1.2 IgG4 antibody (antibody, V domains shown)
VH: EVQLLESGGGLVQPGGSLRLSCAASGFTFSLYWMGWVRQAPGKGLEWVSSISSSGGVTPYADSVKGRFTISRDNSKNTLYLQMNSLRAEDTAVYYCAMLGELGWFDPWGQGTLVTVSS
VL: DIQMTQSPSALSASVGDRVTITCRASQGISSYLNWYQQKPGKAPKLLIYYASNLQNGIPSRFSGSGSGTDFTLTISSLQPEDFATYHCQQSYSTPLTFGGGTNVEIR
notes: human IgG4 format; also called C1.2 Ab
B2: C1.2G-79 (antibody, human IgG4, V domains shown)
VH: B1 VH with M98K
VL: B1 VL with A10S, I58V, H87Y, Q90V, Y92W, S93E, T94Y, N103K, R107K
notes: HCDR3 wt (VH of C1.2G); also called antibody 79
B3: C1.2G-83 (antibody, human IgG4, V domains shown)
VH: B1 VH with M98K
VL: B1 VL with A10S, I58V, H87Y, Y92W, S93M, T94Y, P95A, T97F, N103K, R107K
notes: HCDR3 wt (VH of C1.2G); also called antibody 83
B4: C1.2G-95 (antibody, human IgG4, V domains shown)
VH: B1 VH with M98K
VL: B1 VL with A10S, I58V, H87Y, Y92W, S93E, T94Y, T97V, N103K, R107K
notes: HCDR3 wt (VH of C1.2G); also called antibody 95
B5: C1.2G-97 (antibody, human IgG4, V domains shown)
VH: B1 VH with M98K
VL: B1 VL with A10S, I58V, H87Y, Y92F, S93M, T94Y, T97Y, N103K, R107K
notes: HCDR3 wt (VH of C1.2G); also called antibody 97
B6: C1.2G-802 (antibody, human IgG4, V domains shown)
VH: B1 VH with M98K
VL: B1 VL with A10S, I58V, H87Y, Q89H, Q90F, Y92M, S93Q, T94Y, N103K, R107K
notes: HCDR3 wt (VH of C1.2G); also called antibody 802
B7: C1.2G-987 (antibody, human IgG4, V domains shown)
VH: B1 VH with M98K, W104Q, F105S, D106S, P107A
VL: B1 VL with A10S, I58V, H87Y, Y92I, S93Q, T94Y, L96Q, T97M, N103K, R107K
notes: also called antibody 987
B8: C1.2G-1003 (antibody, human IgG4, V domains shown)
VH: B1 VH with M98K, W104S, F105G, D106S, P107T
VL: B1 VL with A10S, I58V, H87Y, Y92W, S93H, T94Y, N103K, R107K
notes: also called antibody 1003
B9: C1.2G-986 (antibody, human IgG4, V domains shown)
VH: B1 VH with M98K, W104F, D106Q, P107E
VL: B1 VL with A10S, I58V, H87Y, S93A, T94Y, L96Q, T97Q, N103K, R107K
notes: also called antibody 986
B10: C1.2G-54 (antibody, human IgG4, V domains shown)
VH: B1 VH with M98K, W104M, D106L, P107E
VL: B1 VL with A10S, I58V, H87Y, Y92M, S93W, T94M, L96M, T97G, N103K, R107K
notes: also called antibody 54
B11: C1.2G-967 (antibody, human IgG4, V domains shown)
VH: B1 VH with M98K, W104M, F105Y, P107L
VL: B1 VL with A10S, I58V, H87Y, Y92W, S93A, T94Y, P95G, T97S, N103K, R107K
notes: also called antibody 967
B12: C1.2G-989 (antibody, human IgG4, V domains shown)
VH: B1 VH with M98K, W104Q, F105Y, D106M, P107F
VL: B1 VL with A10S, I58V, H87Y, Y92F, S93Y, T94Y, L96F, T97Y, N103K, R107K
notes: also called antibody 989
B13: C1.2G-1002 (antibody, human IgG4, V domains shown)
VH: B1 VH with M98K, W104M, F105Y, D106M, P107N
VL: B1 VL with A10S, I58V, H87Y, Y92W, S93T, T94Y, P95G, L96Q, N103K, R107K
notes: also called antibody 1002
B14: C1.2G-994 (antibody, human IgG4, V domains shown)
VH: B1 VH with M98K, W104Q, D106M, P107D
VL: B1 VL with A10S, I58V, H87Y, Y92L, S93E, T94Y, L96Q, T97M, N103K, R107K
notes: also called antibody 994
B15: C1.2G-969 (antibody, human IgG4, V domains shown)
VH: B1 VH with M98K, W104Q, F105Y, D106Q, P107F
VL: DIQMTQSPSSLSASVGDRVTITCRASQGISSYLNWYQQKPGKAPKLLIYYASNLQNGVPSRFSGSGSGTDFTLTISSLQPEDFATYYCQQSFQYAQHFGGGTKVEIK
notes: also called antibody 969
B16: C1.2G-1000 (antibody, human IgG4, V domains shown)
VH: B1 VH with M98K, W104Q, F105M, D106M, P107Y
VL: B15 VL with F92W, Q93M, Q96H, H97M
notes: also called antibody 1000

How the values were obtained:
[1] = target: T1, human G-CSFR expressed on cells; assay: cell-based or functional assay
[2] = target: T2, soluble hG-CSFR: amino acids 25-335 of …; assay: SPR (Biacore 2000), receptor immobilised on CM5 chip, IgG4 in solution
Method: (§1) Duplicate biosensor analysis of the antibodies c1.2 and 5D11 in IgG4 format were performed using a Biacore 2000 with a doubling dilution of the antibodies (312 nM to 2.4 nM in 0.1 mg/ml BSA) at a flow rate of 30 ul/min. Binding (100 μl) was monitored to respective flow cells containing control immobilized blank, immobilized cyno-G-CSFR-Fc, immobilized hG-CSFR-Fc and immobilized hG-CSFR. Receptor proteins (20 ug per ml in 20 mM Sodium Acetate pH 4.5) were previously immobilized to a CM5 chip using a NHS/EDC coupling kit as per the manufacturer's instructions (Biacore GE, Sweden). Target immobilization values were set at 700, 700 and 500 resonance units for cyno-G-CSFR-Fc, hG-CSFR-Fc and hG-CSFR, respectively. Chip immobilization was quenched with 50 mM ethanolamine pH 8.0. Dissociation of surface binding was monitored for 1000 seconds prior to desorption of the remaining complex using 50 mM Phosphoric acid. Reference binding was then subtracted from the control channel and kinetics generated using biaevaluation software on the Biacore 2000.

[3] = target: T3, hG-CSFR-Fc: polypeptide of SEQ ID NO: 1 …; assay: as above
Method: as §1

[4] = target: T4, cynoG-CSFR-Fc: corresponding segment of …; assay: as above
Method: as §1

[5] = target: T1, human G-CSFR expressed on cells; assay: cell-based or functional assay; remark: listed apart in the source
[6] = target: T2, soluble hG-CSFR: amino acids 25-335 of …; assay: SPR (Biacore), mAb captured by anti-human IgG, soluble hG-CSFR injected
Method: Soluble hG-CSFR was injected for 5 minutes and dissociation was monitored for 30 minutes. Responses from a reference flow cell (in which mAb was not captured, but otherwise treated identically), were subtracted. The responses from a blank injection were then subtracted from the resultant sensorgrams.
The final corrected responses were fitted using non-linear regression to a model describing 1:1 kinetics, including a term for mass transport limitation. The Rmax value was fitted locally, to account for slight deviations in the level of mAb captured. Association rate (ka), dissociation rate (kd) and equilibrium dissociation constant (KD) were determined.

Binder | IC50 (nM), inhibition of G-CSF-mediated proliferation of BaF3 cells [5] [nM] | Kd [6] [nM] | also measured
B1 |  |  | IC50, inhibition of CFU-G formation by CD34+ bone marrow cells in the presence of G-CSF [1]: 0.016 nM; IC50, inhibition of G-CSF-mediated proliferation of BaF3 cells expressing hG-CSFR [1]: 0.5 nM; Kd [2]: 0.027 nM; Kd [3]: 0.077 nM; Kd [4]: 0.054 nM
B2 | 0.31 | 0.0613 | 
B3 | 0.21 | 0.066 | 
B4 | 0.26 | 0.0578 | 
B5 | 0.21 | 0.0906 | 
B6 | 0.26 | 0.111 | 
B7 | 0.88 | 0.0446 | 
B8 | 0.26 | 0.0682 | 
B9 | 0.28 | 0.0911 | 
B10 | 0.5 | 0.11 | 
B11 | 0.29 | 0.134 | 
B12 | 0.34 | 0.144 | 
B13 | 0.18 | 0.167 | 
B14 | 0.49 | 0.17 | 
B15 | 0.41 | 0.181 | 
B16 | 0.34 | 0.182 | 

From patent publication US20160031998A1 (CSL, published 2016)
